Assay results: patent US20200148732A1 (UNIVERSITY OF COPENHAGEN, published 2020)

Key:
[1] = biological target: T1, GFP-TONSL wild type (full length) (Homo sapiens, UniProt Q96HA7 1-1378); assay: GFP immunoprecipitation of GFP-TONSL from transfected HeLa S3 cells, western blot (co-IP; association may be indirect)
T1 construct: Expressed in U-2-OS or HeLa S3 cells; assayed in cell extracts; also called GFP-TONSL WT; TONSL WT / GFP; not shown: N-terminal GFP tag
T1 sequence: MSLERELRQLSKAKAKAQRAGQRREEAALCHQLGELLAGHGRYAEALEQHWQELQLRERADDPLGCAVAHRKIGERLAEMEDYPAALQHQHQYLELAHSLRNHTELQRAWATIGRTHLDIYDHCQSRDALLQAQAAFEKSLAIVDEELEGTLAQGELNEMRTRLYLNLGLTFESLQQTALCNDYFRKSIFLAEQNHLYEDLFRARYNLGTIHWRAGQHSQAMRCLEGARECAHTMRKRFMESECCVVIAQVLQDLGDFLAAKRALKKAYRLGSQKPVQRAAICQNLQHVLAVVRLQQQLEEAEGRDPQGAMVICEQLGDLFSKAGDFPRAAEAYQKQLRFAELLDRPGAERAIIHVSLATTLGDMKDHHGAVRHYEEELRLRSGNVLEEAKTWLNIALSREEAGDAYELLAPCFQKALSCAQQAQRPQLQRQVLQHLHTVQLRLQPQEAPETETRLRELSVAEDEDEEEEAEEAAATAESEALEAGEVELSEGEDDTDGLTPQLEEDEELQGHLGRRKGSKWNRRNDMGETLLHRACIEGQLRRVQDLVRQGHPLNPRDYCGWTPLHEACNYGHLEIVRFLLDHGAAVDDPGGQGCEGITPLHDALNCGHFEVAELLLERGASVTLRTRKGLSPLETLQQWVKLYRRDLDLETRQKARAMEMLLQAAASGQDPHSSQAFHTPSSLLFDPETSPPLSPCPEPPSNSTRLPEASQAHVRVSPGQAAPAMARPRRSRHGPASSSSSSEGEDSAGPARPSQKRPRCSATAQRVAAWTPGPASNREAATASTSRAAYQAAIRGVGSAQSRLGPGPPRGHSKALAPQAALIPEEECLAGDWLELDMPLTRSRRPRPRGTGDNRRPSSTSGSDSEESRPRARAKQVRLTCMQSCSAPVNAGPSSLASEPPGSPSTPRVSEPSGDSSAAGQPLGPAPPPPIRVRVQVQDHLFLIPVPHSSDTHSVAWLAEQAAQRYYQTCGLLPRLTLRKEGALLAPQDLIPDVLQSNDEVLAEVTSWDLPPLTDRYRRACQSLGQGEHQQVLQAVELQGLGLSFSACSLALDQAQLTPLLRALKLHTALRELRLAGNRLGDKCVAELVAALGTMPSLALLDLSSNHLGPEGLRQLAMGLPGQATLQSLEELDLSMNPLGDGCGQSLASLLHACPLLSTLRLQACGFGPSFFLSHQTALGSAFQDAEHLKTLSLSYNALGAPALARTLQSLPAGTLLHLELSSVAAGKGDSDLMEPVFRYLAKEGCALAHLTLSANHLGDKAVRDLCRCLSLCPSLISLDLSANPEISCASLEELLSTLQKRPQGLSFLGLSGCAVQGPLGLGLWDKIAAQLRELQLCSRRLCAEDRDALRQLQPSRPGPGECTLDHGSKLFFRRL

GFP-TONSL N571A = biological target: T2, GFP-TONSL N571A (Homo sapiens, UniProt Q96HA7 1-1378); assay: as above
T2 construct: also called TONSL N571A / GFP; not shown: N-terminal GFP tag
T2 sequence: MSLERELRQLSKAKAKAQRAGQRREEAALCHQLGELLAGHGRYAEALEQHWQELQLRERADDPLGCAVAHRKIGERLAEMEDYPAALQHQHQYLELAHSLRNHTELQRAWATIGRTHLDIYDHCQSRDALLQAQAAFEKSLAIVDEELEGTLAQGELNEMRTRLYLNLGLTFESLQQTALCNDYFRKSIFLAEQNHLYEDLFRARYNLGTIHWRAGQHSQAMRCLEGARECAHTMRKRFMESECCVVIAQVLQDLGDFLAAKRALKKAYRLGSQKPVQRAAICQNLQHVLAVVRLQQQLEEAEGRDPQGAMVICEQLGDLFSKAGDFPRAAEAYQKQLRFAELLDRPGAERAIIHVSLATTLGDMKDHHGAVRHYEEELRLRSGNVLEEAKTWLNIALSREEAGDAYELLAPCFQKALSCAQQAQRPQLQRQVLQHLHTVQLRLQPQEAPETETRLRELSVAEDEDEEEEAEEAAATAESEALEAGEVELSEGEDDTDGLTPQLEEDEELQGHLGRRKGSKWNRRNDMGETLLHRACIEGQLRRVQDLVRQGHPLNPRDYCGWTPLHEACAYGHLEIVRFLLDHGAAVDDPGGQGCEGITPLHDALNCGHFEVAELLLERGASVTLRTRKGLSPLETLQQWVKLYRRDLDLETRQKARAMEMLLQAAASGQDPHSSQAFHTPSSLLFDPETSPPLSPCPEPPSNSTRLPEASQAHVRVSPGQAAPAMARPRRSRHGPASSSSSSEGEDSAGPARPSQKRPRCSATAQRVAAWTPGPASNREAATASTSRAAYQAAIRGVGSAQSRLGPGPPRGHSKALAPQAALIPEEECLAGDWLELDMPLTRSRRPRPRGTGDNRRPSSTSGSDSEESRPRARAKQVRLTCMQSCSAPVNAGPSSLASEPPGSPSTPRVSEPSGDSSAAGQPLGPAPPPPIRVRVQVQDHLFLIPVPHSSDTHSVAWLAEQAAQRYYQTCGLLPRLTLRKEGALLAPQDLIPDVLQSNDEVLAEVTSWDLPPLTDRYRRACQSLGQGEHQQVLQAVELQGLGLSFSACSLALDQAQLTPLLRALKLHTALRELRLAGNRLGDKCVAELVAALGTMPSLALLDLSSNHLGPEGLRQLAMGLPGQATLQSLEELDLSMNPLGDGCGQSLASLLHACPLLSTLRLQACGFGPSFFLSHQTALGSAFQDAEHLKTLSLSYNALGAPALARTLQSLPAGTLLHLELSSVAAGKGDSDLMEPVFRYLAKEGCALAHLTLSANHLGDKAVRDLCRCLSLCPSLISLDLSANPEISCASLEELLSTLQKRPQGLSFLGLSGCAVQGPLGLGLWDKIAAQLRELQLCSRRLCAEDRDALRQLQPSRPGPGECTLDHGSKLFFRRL

binding result [1]: binds
binding result (GFP-TONSL N571A): binds
B1: MMS22L (endogenous, in cell extracts) (other, UniProt Q6ZRQ5 1-1243, looked up)
chain: MENCSAASTFLTDSLELELGTEWCKPPYFSCAVDNRGGGKHFSGESYLCSGALKRLILNLDPLPTNFEEDTLEIFGIQWVTETALVNSSRELFHLFRQQLYNLETLLQSSCDFGKVSTLHCKADNIRQQCVLFLHYVKVFIFRYLKVQNAESHVPVHPYEALEAQLPSVLIDELHGLLLYIGHLSELPSVNIGAFVNQNQIKLFPPSWHLLHLHLDIHWLVLEILYMLGEKLKQVVYGHQFMNLASDNLTNISLFEEHCETLLCDLISLSLNRYDKVRSSESLMSDQCPCLCIKELWVLLIHLLDHRSKWFVSESFWNWLNKLLKTLLEKSSDRRRSSMPVIQSRDPLGFSWWIITHVASFYKFDRHGVPDEMRKVESNWNFVEELLKKSISVQGVILEEQLRMYLHCCLTLCDFWEPNIAIVTILWEYYSKNLNSSFSISWLPFKGLANTMKSPLSMLEMVKTCCCDKQDQELYKSSSSYTIFLCILAKVVKKAMKSNGPHPWKQVKGRIYSKFHQKRMEELTEVGLQNFFSLFLLLAAVAEVEDVASHVLDLLNFLKPAFVTSQRALIWKGHMAFLLMYAQKNLDIGVLAEKFSCAFREKAKEFLVSKNEEMVQRQTIWTLLSIYIDGVQEVFETSYCLYPSHEKLLNDGFSMLLRACRESELRTVLSFLQAVLARIRSMHQQLCQELQRDNVDLFVQSSLSAKERHLAAVASALWRHFFSFLKSQRMSQVVPFSQLADAAADFTLLAMDMPSTAPSDFQPQPVISIIQLFGWDDIICPQVVARYLSHVLQNSTLCEALSHSGYVSFQALTVRSWIRCVLQMYIKNLSGPDDLLIDKNLEEAVEKEYMKQLVKLTRLLFNLSEVKSIFSKAQVEYLSISEDPKKALVRFFEAVGVTYGNVQTLSDKSAMVTKSLEYLGEVLKYIKPYLGKKVFSAGLQLTYGMMGILVKSWAQIFATSKAQKLLFRIIDCLLLPHAVLQQEKELPAPMLSAIQKSLPLYLQGMCIVCCQSQNPNAYLNQLLGNVIEQYIGRFLPASPYVSDLGQHPVLLALRNTATIPPISSLKKCIVQVIRKSYLEYKGSSPPPRLASILAFILQLFKETNTDIYEVELLLPGILKCLVLVSEPQVKRLATENLQYMVKACQVGSEEEPSSQLTSVFRQFIQDYGMRYYYQVYSILETVATLDQQVVIHLISTLTQSLKDSEQKWGLGRNIAQREAYSKLLSHLGQMGQDEMQRLENDNT
